From the supplement of paper PMC10567573

B1: NFE2L1 (parent)
chain: TLDGYGIHPKSIDLDNYFTARRLL

Variants of: B1
Test: protein stability index of a GFP-peptide fusion (GPS, HEK-293T) (PSI 1-6); higher = more stable
Conditions: c terminus: a fixed tail appended
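Further: lentivirally expressed fusions sorted by FACS into six bins by GFP to DsRed ratio, PSI derived from sequencing read proportions per bin multiplied by bin number.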

Protein stability index of substitutions, site by site:
I12: Q 2.33, R 1.93, S 1.87, T 1.99, V 1.85, W 2.05, Y 1.99
D13: A 1.84, C 2, E 2.45, F 1.48, G 2.25, H 1.64, I 2.77, K 1.72, L 1.73, M 1.64, N 2.1, P 2.26, Q 2.01, R 1.91, S 1.83, T 2.11, V 1.76, W 2.21, Y 1.46
L14: A 2.2, C 2.39, D 2.71, E 3.11, F 1.82, G 2.31, H 2.01, I 2.12, K 2.49, M 2.02, N 2.17, P 2.31, Q 2.21, R 2.1, S 2.62, T 2.55, V 1.71, W 1.95, Y 2.25
D15: A 1.9, C 1.48, E 1.96, F 2.6, G 2.3, H 1.89, I 2.47, K 1.72, L 1.57, M 1.84, N 2.2, P 2.06, Q 1.84, R 2.74, S 2.44, T 1.77, V 1.72, W 2.21, Y 1.46
N16: A 1.72, C 2.51, D 2.03, E 2.19, F 2.63, G 1.21, H 1.9, I 3.1, K 1.39, M 1.87, P 1.98, Q 1.8, R 1.82, S 2.6, T 1.76, V 2.24, W 1.96, Y 2.19
Y17: A 1.88, C 1.71, D 2.64, E 3.09, F 3.17, G 2.32, H 2.56, I 2.25, K 2.57, L 2.06, M 2.36, N 2.59, P 3.23, Q 2.92, R 2.58, S 2.55, T 2.24, V 2.21, W 1.5
F18: A 2.93, C 2.03, D 3.26, E 2.71, G 2.67, H 2.34, I 1.92, K 2.88, L 1.89, M 2.08, N 3, P 2.89, Q 2.69, R 2.31, S 2.16, T 2.25, V 3.05, W 1.7, Y 1.99
T19: A 2.01, C 1.69, D 2.07, E 2.09, F 1.71, G 1.89, H 2.32, I 2.03, K 2.46, L 1.26, M 1.67, N 2.09, P 2, Q 1.77, R 2.81, S 1.9, V 1.66, W 2.08, Y 1.8
A20: C 1.6, D 2.76, E 1.87, F 1.8, G 1.71, H 1.66, I 1.77, K 2.34, L 1.53, M 1.96, N 1.49, P 1.84, Q 2.23, R 2.17, S 2.03, T 1.49, V 1.35, W 2.04, Y 1.92
R21: A 1.67, C 1.7, D 2.67, E 2.12, F 1.77, G 2.4, H 2.8, I 1.6, K 1.96
